In general, pKd refers to −log10 of the Kd, conventionally taken in molar units. A high value points to a low Kd.

pKd: −log10 of the molar value. A value given as a limit tells only on which side of the number the result lay.

This passage reports Kd results from paper PMC3392929.

For the assay, the target named is Purified β-actin (Cytoskeleton) (UniProt P60709). Briefly: SPR. Background: In SPR one partner is held on a chip, and binding of the other changes the refractive index at the surface.

Turning to “GST-tagged Myo1c neck plus tail (domain or fragment)”, the pKd was above 5.70.
